Laboratory results published in US8101390B2, “Mutant-type acetyltransferase Mpr1” (National University Corporation Nara Institute of Science …, priority 2006, dated 2012).
Substitutions are numbered along the chain they refer to. Numbers in names are those of the source.

Columns and labels:
[1] = molecular target: T1, Saccharomyces cerevisiae N-acetyltransferase Mpr1 variant K63R (lysine 63 to arginine), SEQ ID NO:7 (Saccharomyces cerevisiae, UniProt E9P8D2, K63R); test: DTNB enzymatic activity (kinetics) of purified K63R mutant-type Mpr1; type: biochemical; conditions: vs wild-type
T1 sequence (E9P8D2 1-229 K63R): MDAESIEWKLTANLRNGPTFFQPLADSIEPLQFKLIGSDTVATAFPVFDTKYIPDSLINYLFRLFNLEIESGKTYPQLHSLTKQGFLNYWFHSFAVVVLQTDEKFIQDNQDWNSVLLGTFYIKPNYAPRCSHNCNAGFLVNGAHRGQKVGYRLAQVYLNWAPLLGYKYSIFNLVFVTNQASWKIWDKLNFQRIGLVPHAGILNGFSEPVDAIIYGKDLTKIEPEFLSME
Description: (§1) JM109 was inoculated in 5 ml of M9CA (CA:0.2%) medium and was cultured at. 37° C. until OD600 of the culture reached 0.7. IPTG was added to the medium to the final concentration of 0.1 mM and cells were further cultured at 18° C. for 18 hours. After the culture, cells were ice-cooled and were collected by centrifugation (8000 rpm, 5 min). Cells were washed by the addition of Lysis buffer. After centrifugation (8000 rpm, 5 min), 5 ml of Lysis buffer was added and cells were suspended therein. The suspension was subjected to ultrasonic disintegrator and was centrifuged (15000 rpm, 10 min). The supernatant was applied onto Ni-NTA column (2 ml of QIAGEN resin suspension) equilibrated with Lysis buffer. The flow-through fraction was collected and the column was washed with 10 ml of wash buffer and then fractions were collected. Further, fractions eluted with 5 ml of elution buffer were used as the purified enzyme.
(§2) Enzymatic activities were measured for the purified wild-type Mpr1 and the purified K63R, F65L/L117V, F65L and L117V-mutant-type Mpr1s. The enzymatic activities were measured according to 5,5′-dithiobis (2-nitrobenzoic acid) (DTNB) method.

[2] = molecular target: T2, Saccharomyces cerevisiae N-acetyltransferase Mpr1 variant L117V (leucine 117 to valine), SEQ ID NO:9 (Saccharomyces cerevisiae, UniProt E9P8D2, L117V); test: DTNB enzymatic activity (kinetics) of purified L117V mutant-type Mpr1; type: biochemical; conditions: vs wild-type
T2 sequence (E9P8D2 1-229 L117V): T1 sequence (E9P8D2 1-229 K63R) with R63K, L117V
Description: as §1, §2

[3] = molecular target: T3, Saccharomyces cerevisiae N-acetyltransferase Mpr1, wild-type, SEQ ID NO:1 (Saccharomyces cerevisiae, UniProt E9P8D2); test: DTNB enzymatic activity (kinetics) of purified wild-type Mpr1; type: biochemical; conditions: 30° C., […]-0.15 mM acetyl-CoA
T3 sequence (E9P8D2 1-229): T1 sequence (E9P8D2 1-229 K63R) with R63K
Description: as §1, §2

[4] = molecular target: T4, Saccharomyces cerevisiae N-acetyltransferase Mpr1 variant F65L (phenylalanine 65 to leucine), SEQ ID NO:8 (Saccharomyces cerevisiae, UniProt E9P8D2, F65L); test: DTNB enzymatic activity (kinetics) of purified F65L mutant-type Mpr1; type: biochemical; conditions: vs wild-type
T4 sequence (E9P8D2 1-229 F65L): T1 sequence (E9P8D2 1-229 K63R) with R63K, F65L
Description: as §1, §2

[5] = substrate: O=C(O)[C@@H]1CCN1; test: DTNB enzymatic activity (kinetics) of purified L117V mutant-type Mpr1; type: biochemical, Saccharomyces cerevisiae; conditions: other: L117V, 30° C., DTNB method, 0.5 mM-5 mM AZC
[6] = substrate: CC(=O)SCCNC(=O)CCNC(=O)[C@H](O)C(C)(C)COP(=O)(O)OP(=O)(O)OC[C@H]1O[C@@H](n2cnc3c(N)ncnc32)[C@H](O)[C@@H]1OP(=O)(O)O; test: as above; type: biochemical, Saccharomyces cerevisiae; conditions: other: L117V, 30° C., DTNB method, […]-0.15 mM acetyl-CoA
[7] = substrate: O=C(O)[C@@H]1CCN1; test: DTNB enzymatic activity (kinetics) of purified F65L/L117V mutant-type Mpr1; type: biochemical, Saccharomyces cerevisiae; conditions: other: F65L/L117V, 30° C., DTNB method, 0.5 mM-5 mM AZC
[8] = substrate: CC(=O)SCCNC(=O)CCNC(=O)[C@H](O)C(C)(C)COP(=O)(O)OP(=O)(O)OC[C@H]1O[C@@H](n2cnc3c(N)ncnc32)[C@H](O)[C@@H]1OP(=O)(O)O; test: as above; type: biochemical, Saccharomyces cerevisiae; conditions: other: F65L/L117V, 30° C., DTNB method, […]-0.15 mM acetyl-CoA
[9] = substrate: O=C(O)[C@@H]1CCN1; test: DTNB enzymatic activity (kinetics) of purified F65L mutant-type Mpr1; type: biochemical, Saccharomyces cerevisiae; conditions: other: F65L, 30° C., DTNB method, 0.5 mM-5 mM AZC
[10] = substrate: CC(=O)SCCNC(=O)CCNC(=O)[C@H](O)C(C)(C)COP(=O)(O)OP(=O)(O)OC[C@H]1O[C@@H](n2cnc3c(N)ncnc32)[C@H](O)[C@@H]1OP(=O)(O)O; test: as above; type: biochemical, Saccharomyces cerevisiae; conditions: other: F65L, 30° C., DTNB method, […]-0.15 mM acetyl-CoA
[11] = substrate: O=C(O)[C@@H]1CCN1; test: DTNB enzymatic activity (kinetics) of purified K63R mutant-type Mpr1; type: biochemical, Saccharomyces cerevisiae; conditions: other: K63R, 30° C., DTNB method, 0.5 mM-5 mM AZC
[12] = substrate: CC(=O)SCCNC(=O)CCNC(=O)[C@H](O)C(C)(C)COP(=O)(O)OP(=O)(O)OC[C@H]1O[C@@H](n2cnc3c(N)ncnc32)[C@H](O)[C@@H]1OP(=O)(O)O; test: as above; type: biochemical, Saccharomyces cerevisiae; conditions: other: K63R, 30° C., DTNB method, […]-0.15 mM acetyl-CoA
[13] = substrate: O=C(O)[C@@H]1CCN1; test: DTNB enzymatic activity (kinetics) of purified wild-type Mpr1; type: biochemical, Saccharomyces cerevisiae; conditions: other: wild-type, 30° C., DTNB method, 0.5 mM-5 mM AZC

CC(=O)SCCNC(=O)CCNC(=O)[C@H](O)C(C)(C)COP(=O)(O)OP(=O)(O)OC[C@H]1O[C@@H](n2cnc3c(N)ncnc32)[C@H](O)[C@@H]1OP(=O)(O)O [Acetyl-CoA, acetyl-CoA]
Km value, change in words [1]: decreased
Km value for acetyl-CoA, change in words [2]: decreased
Vmax (Acetyl-CoA) [3]: 64.5 ± 1.29 U/mg
kcat (Acetyl-CoA) [3]: 31.2 ± 0.63 s⁻¹

O=C(O)[C@@H]1CCN1 [AZC, azetidine-2-calboxylate]
Km value, change in words [1]: decreased
Km value for AZC, change in words [4]: decreased

B1: Saccharomyces cerevisiae N-acetyltransferase Mpr1 variant L117V (leucine 117 to valine), SEQ ID NO:9 (Saccharomyces cerevisiae; L117V) (protein)
chain: T1 sequence (E9P8D2 1-229 K63R) with R63K, L117V
Km [5]: 1.4 ± 0.13 mM
Vmax [5]: 98.5 ± 3.34 U/mg
kcat [5]: 47.6 ± 1.61 s⁻¹
kcat/Km [5]: 32500 ± 2580 M⁻¹ s⁻¹
Km [6]: 7.63 ± 2.03 ↓ μM
Vmax [6]: 79.4 ± 1.54 U/mg
kcat [6]: 38.4 ± 0.74 s⁻¹
kcat/Km [6]: 5e+06 ± 1.17e+06 M⁻¹ s⁻¹

B2: Saccharomyces cerevisiae N-acetyltransferase Mpr1 variant F65L/L117V, SEQ ID NO:10 (Saccharomyces cerevisiae; F65L/L117V) (protein)
chain: T1 sequence (E9P8D2 1-229 K63R) with R63K, F65L, L117V
Km [7]: 1.8 ± 0.19 mM
Vmax [7]: 79.4 ± 1.05 U/mg
kcat [7]: 38.4 ± 2.18 s⁻¹
kcat/Km [7]: 21300 M⁻¹ s⁻¹
Km [8]: 13.3 ± 1.67 µM
Vmax [8]: 64.9 ± 0.36 U/mg
kcat [8]: 31.4 ± 0.17 s⁻¹
kcat/Km [8]: 2.3e+06 M⁻¹ s⁻¹

B3: Saccharomyces cerevisiae N-acetyltransferase Mpr1 variant F65L (phenylalanine 65 to leucine), SEQ ID NO:8 (Saccharomyces cerevisiae; F65L) (protein)
chain: T1 sequence (E9P8D2 1-229 K63R) with R63K, F65L
Km [9]: 0.7 ± 0.15 ↓ mM
Vmax [9]: 65.0 ± 2.74 U/mg
kcat [9]: 31.4 ± 1.33 s⁻¹
kcat/Km [9]: 45500 ± 8630 M⁻¹ s⁻¹
Km [10]: 10.3 ± 1.46 µM
Vmax [10]: 63.7 ± 3.34 U/mg
kcat [10]: 30.8 ± 0.61 s⁻¹
kcat/Km [10]: 2.9e+06 M⁻¹ s⁻¹

B4: Saccharomyces cerevisiae N-acetyltransferase Mpr1 variant K63R (lysine 63 to arginine), SEQ ID NO:7 (Saccharomyces cerevisiae; K63R) (protein)
chain: T1 sequence (E9P8D2 1-229 K63R)
Km [11]: 1.2 ± 0.17 ↓ mM
Vmax [11]: 72 ± 2.98 U/mg
kcat [11]: 30.6 ± 1.44 s⁻¹
kcat/Km [11]: 24800 M⁻¹ s⁻¹
Km [12]: 8.0 ± 2.84 ↓ μM
Vmax [12]: 62.4 ± 1.94 U/mg
kcat [12]: 26.5 ± 0.94 s⁻¹
kcat/Km [12]: 3.3e+06 ± 1.09e+06 M⁻¹ s⁻¹

B5: Saccharomyces cerevisiae N-acetyltransferase Mpr1, wild-type, SEQ ID NO:1 (Saccharomyces cerevisiae) (protein)
chain: T1 sequence (E9P8D2 1-229 K63R) with R63K
Km [13]: 1.6 ± 0.09 mM
Vmax [13]: 74.76 ± 1.27 U/mg
kcat [13]: 36.1 ± 1.53 s⁻¹
kcat/Km [13]: 22400 M⁻¹ s⁻¹
